Target: T1, human folate receptor β (human, UniProt P14207 17-230)
T1 construct: whole, on cells; also called FRβ; FR-β
Assay: flow cytometry on human FRβ-expressing B300-19 cells
Description: The cells were further reacted with an anti-rat antibody labeled with APC. After the end of reaction, stainability was determined using a flow cytometer.

T1 sequence (P14207 17-230): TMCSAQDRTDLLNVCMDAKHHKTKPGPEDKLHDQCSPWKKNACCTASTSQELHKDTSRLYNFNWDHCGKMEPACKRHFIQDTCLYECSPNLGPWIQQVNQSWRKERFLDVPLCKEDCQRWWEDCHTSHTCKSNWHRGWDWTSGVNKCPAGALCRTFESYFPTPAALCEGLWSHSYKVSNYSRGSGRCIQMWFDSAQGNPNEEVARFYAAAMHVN

B1: anti-human FRα/β rat monoclonal antibody (clone name: No. 5) (antibody, V domains shown)
VH: QVQLKESGPGLVQPSQTLSLTCTVSGFSLTSNSVSWVRQPPGKGLEWMGAIWSGGSTDYNSALKSRLSISKDTSKSQVFLKMNSLQTEDTAIYFCTRYYGYTYFAYWGQGVMVTVSS
VL: DIQMTQSPASLSASLEEIVTITCQASQDIGNWLAWYQQKPGKSPQLLIYDAIRLADGVPSRFSGSRSGTQYSLKISRLQVEDIGDYYCQQGQSNPRTFGGGTKLELK
notes: also called antibody No. 5; anti-human FRα/β antibody
  binding result: binds

— patent US20150343088A1 (KAGOSHIMA UNIVERSITY, published 2015)
